T1: Prm1 ZF domain (Pichia pastoris (Komagataella pastoris)) (UniProt C4R754)
T1 sequence: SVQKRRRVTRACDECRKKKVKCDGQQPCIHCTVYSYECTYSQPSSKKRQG

T2: Mit1 ZF domain (Pichia pastoris (Komagataella pastoris)) (UniProt C4R5Q1)
T2 sequence: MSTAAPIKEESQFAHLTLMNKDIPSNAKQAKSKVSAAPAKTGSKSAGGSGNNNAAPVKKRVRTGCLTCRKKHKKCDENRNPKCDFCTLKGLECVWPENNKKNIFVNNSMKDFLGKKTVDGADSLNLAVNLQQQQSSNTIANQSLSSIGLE

T3: Mit1 ZF domain (Pichia pastoris (Komagataella pastoris), UniProt C4R5Q1 1-150)
T3 sequence: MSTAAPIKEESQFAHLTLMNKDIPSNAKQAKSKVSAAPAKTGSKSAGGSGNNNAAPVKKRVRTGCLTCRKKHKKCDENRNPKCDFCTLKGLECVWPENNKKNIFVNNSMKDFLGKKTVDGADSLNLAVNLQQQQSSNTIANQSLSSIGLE

T4: Prm1 ZF domain (Pichia pastoris (Komagataella pastoris), UniProt C4R754 41-90)
T4 chain: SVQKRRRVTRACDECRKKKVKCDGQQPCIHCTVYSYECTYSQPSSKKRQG


How the values were obtained:
[1] = biological target: T1, Prm1 ZF domain (Pichia pastoris (Komagataella pastoris)); experiment: EMSA; conditions: EMSA: 50 mM Tris-HCl pH 8.0, 50 mM NaCl, 1 mM DTT, 0.05% NP-40, 50 ug/ml poly[d(I-C)], 5% glycerol, 30 min at 4 C; about 30 nM probe, 0-1 uM protein. …
[2] = biological target: T2, Mit1 ZF domain (Pichia pastoris (Komagataella pastoris)); experiment: EMSA; conditions: EMSA: 50 mM Tris-HCl pH 8.0, 50 mM NaCl, 1 mM DTT, 0.05% NP-40, 50 ug/ml poly[d(I-C)], 5% glycerol, 30 min at 4 C; about 30 nM probe, 0-1 uM protein. …
[3] = biological target: T3, Mit1 ZF domain; experiment: EMSA; EMSA: 50 mM Tris-HCl pH 8.0, 50 mM NaCl, 1 mM DTT, 0.05% NP-40, 50 ug/ml poly[d(I-C)], 5% glycerol, 30 min at 4 C; about 30 nM probe, 0-1 uM protein. Footprinting: 350 ng probe in 40 ul, 30 min at 25 C; conditions: protein: recombinant; tags: His6; label: Cy5
[4] = biological target: T4, Prm1 ZF domain; experiment: as above; conditions: protein: recombinant; tags: His6; label: Cy5

| Molecule | binding [1] | binding result [3] | also measured |
| --- | --- | --- | --- |
| CAATTCCTTCTATTAGGCTACTAACACCATGACTTTATTAGCCTGTCTATCCTGGCCCCCCTGGCGAGGTTCATGTTTGTTTATTTCCGAATGCAACAAGCTCCGCATTACACCCGAACATCACTCCAGATGAGGGCTTTCTGAGTGTGGGGTCAAATAGTTTCATGTTCCCCAAATGGCCCAAAACTGACAGTTTAAACGCTGTCTTG (double strand) [PAOX1 W2] | no binding |  | binding [2]: binds |
| GATAGCACTCTGGATTGATCAGAAACTTCATATCCGGAGACAGATACTTGTCTGTCTTGCATATGGGGCAATATTCTTCAGTATCCATCCGATGATTACGATTAGTATTAGGTTGATGAATAATCCATAATGGTCCCCTGATGGAATATGCTCGCGAAGA (double strand) [PPRM1-A] | binds |  |  |
| ACAGAATCTGGAGGTGTAAACACCGTCATTCCCTAATCTAAGTTTCTGTCCAGCCGTTTAGAAAGTTCCTCTTCGTCAATAAAGTTTAACTTTGAACGTGAGAGTTGAGCTAATCGGAAATACTCCCGAGAGCACACCCGAGCAGTGAAGCGGGGCATCATCAAAAGAATTAAGGGGTGCTGGGTGCGGATTGCGCGCAGTAGCTGGCATCAATGCCAAACGTAGAACTCATACATTCTCCTATCAGAATCATACGACATCGAGAGATACACCAGCCAGCACCACTTGAACACTCCCAAT (double strand) [PMIT1-A] | binds |  |  |
| TTGCTGTCAAGTAGGGGTTAGAACAGTTAAATTTTGATCATGAACGTTAGGCTATCAGCAGTATTCCCACCAGAATCTTGGAAGCATACAATGTGGAGACAATGCATAATCATCCAAAAAGCGGGTGTTTCCCCATTTGCGTTTCGGCACAGGTGCACCGGGGTTCAGAAGCGATAGAGAGACTGCGCTAAGCATTAATGAGATTATTTTTGAGCATTCGTCAAT (double strand) [PAOX1 W4] | binds |  | binding [2]: no binding |
| ATTTTTGAGCATTCGTCAATCAATACCAAACAAGACAAACGGTATGCCGACTTTTGGAAGTTTCTTTTTGACCAACTGGCCGTTAGCATTTCAACGAACCAAACTTAGTTCATCTTGGATGAGATCACGCTTTTGTCATATTAGGTTCCAAGACAGCGTTTAAACTGT (double strand) [PAOX1 W3] | binds |  | binding [2]: binds |
| GTTCTTCCCGTTCCGCTCTATCCGATAAGAGGTTGGCTTCCGAGAAGGTTGGTAGTTGGAATGACGTACAAAATGTACAACAAAGCAGATGTTGTTTAGCGCGATCGCCCCAACCCCTCTTGTTGTTAGACAGTCTTATGCATATTTCGTAGACCCGGGACTGTACATTCGTCCGTCCTCAACCATTGGTCATTTGGTAC (double strand) [PMIT1-D] | binds |  |  |
| W2 delta A delta B (dsDNA) DNA 1: CAATTCATGACTTCTGGCCCCCCTGGCGAGGTTCATGTTTGTTTATTTCCGAATGCAACAAGCTCCGCATTACACCCGAACATCACTCCAGATGAGGGCTTTCTGAGTGTGGGGTCAAATAGTTTCATGTTCCCCAAATGGCCCAAAACTGACAGTTTAAACGCTGTCTTG DNA 2: CAAGACAGCGTTTAAACTGTCAGTTTTGGGCCATTTGGGGAACATGAAACTATTTGACCCCACACTCAGAAAGCCCTCATCTGGAGTGATGTTCGGGTGTAATGCGGAGCTTGTTGCATTCGGAAATAAACAAACATGAACCTCGCCAGGGGGGCCAGAAGTCATGAATTG |  | no binding |  |
| W2 delta A (dsDNA) DNA 1: CAATTCATGACTTTATTAGCCTGTCTATCCTGGCCCCCCTGGCGAGGTTCATGTTTGTTTATTTCCGAATGCAACAAGCTCCGCATTACACCCGAACATCACTCCAGATGAGGGCTTTCTGAGTGTGGGGTCAAATAGTTTCATGTTCCCCAAATGGCCCAAAACTGACAGTTTAAACGCTGTCTTG DNA 2: CAAGACAGCGTTTAAACTGTCAGTTTTGGGCCATTTGGGGAACATGAAACTATTTGACCCCACACTCAGAAAGCCCTCATCTGGAGTGATGTTCGGGTGTAATGCGGAGCTTGTTGCATTCGGAAATAAACAAACATGAACCTCGCCAGGGGGGCCAGGATAGACAGGCTAATAAAGTCATGAATTG |  | binds |  |
| W3 delta B delta C (dsDNA) DNA 1: ACAGTTTAAACGCTGTCTTGGAACCTAATATGACAAAAGCGTGACAAGATGAACTAAGTTTGGTTCGTTGAAATGGCCAGTTGGTCAAAAAGAAACTTCCAAAAGTCGGCATACCGTTTGTCTTGTTTGGTATTGATTGACGAATGCTCAAAAAT DNA 2: ATTTTTGAGCATTCGTCAATCAATACCAAACAAGACAAACGGTATGCCGACTTTTGGAAGTTTCTTTTTGACCAACTGGCCATTTCAACGAACCAAACTTAGTTCATCTTGTCACGCTTTTGTCATATTAGGTTCCAAGACAGCGTTTAAACTGT |  | binds |  |
| W2 delta B (dsDNA) DNA 1: CAATTCCTTCTATTAGGCTACTAACACCATGACTTCTGGCCCCCCTGGCGAGGTTCATGTTTGTTTATTTCCGAATGCAACAAGCTCCGCATTACACCCGAACATCACTCCAGATGAGGGCTTTCTGAGTGTGGGGTCAAATAGTTTCATGTTCCCCAAATGGCCCAAAACTGACAGTTTAAACGCTGTCTTG DNA 2: CAAGACAGCGTTTAAACTGTCAGTTTTGGGCCATTTGGGGAACATGAAACTATTTGACCCCACACTCAGAAAGCCCTCATCTGGAGTGATGTTCGGGTGTAATGCGGAGCTTGTTGCATTCGGAAATAAACAAACATGAACCTCGCCAGGGGGGCCAGAAGTCATGGTGTTAGTAGCCTAATAGAAGGAATTG |  | binds |  |
| W3 delta D (dsDNA) DNA 1: ACAGTTTAAACGCTGTCTTGGAACCTAATATGACAAAAGCGTGATCTCATCCAAGATGAACTAAGTTTGGTTCGTTGAAATGCTAACGGCCAGTTGGTCAAAAAGAAACTTCCGAATGCTCAAAAAT DNA 2: ATTTTTGAGCATTCGGAAGTTTCTTTTTGACCAACTGGCCGTTAGCATTTCAACGAACCAAACTTAGTTCATCTTGGATGAGATCACGCTTTTGTCATATTAGGTTCCAAGACAGCGTTTAAACTGT |  | binds | binding result [4]: no binding |

From article PMC4813576, “Mit1 Transcription Factor Mediates Methanol Signaling and Regulates the Alcohol Oxidase 1 (AOX1) Promoter in Pichia pastoris*”
